Measured values from article PMC9352680, “A comprehensive thermodynamic model for RNA binding by the Saccharomyces cerevisiae Pumilio protein PUF4”.

Biological target: T1, PUF4 RNA-binding domain (Saccharomyces cerevisiae, UniProt P25339 537-888)
T1 sequence: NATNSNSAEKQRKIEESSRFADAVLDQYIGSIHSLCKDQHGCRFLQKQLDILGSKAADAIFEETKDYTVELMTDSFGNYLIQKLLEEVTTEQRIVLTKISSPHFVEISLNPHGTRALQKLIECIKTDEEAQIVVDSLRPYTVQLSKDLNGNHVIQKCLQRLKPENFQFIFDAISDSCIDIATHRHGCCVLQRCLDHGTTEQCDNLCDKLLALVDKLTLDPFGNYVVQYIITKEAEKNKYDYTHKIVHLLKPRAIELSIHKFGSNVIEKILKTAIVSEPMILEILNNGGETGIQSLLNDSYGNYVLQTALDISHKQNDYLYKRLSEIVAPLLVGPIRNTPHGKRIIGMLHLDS
Assay: Mg; RNA-MaP; 20 mM Na-HEPES pH 7.4, 30 mM KOAc, 0.75 mM MgCl2, 0.1% Tween-20, 5% glycerol, 0.1 mg/mL BSA, 2 mM DTT; 25 C; 0.0125-409.6 nM protein
Details: tags: N-His6-TEV cleaved; C-SNAP kept, Cy3B-labelled; label: tethered on chip by stalled RNA polymerase

Binder	Kd [nM]
UCUCUUUAUGUAUAUAACUCUCUU (ssRNA) [Id_ii_S1_P3E.2_K3.1_C3.2_[C-2T]_[T-1A]_H3.1_A3.1_F3.1_T3.2_[T9A]_[A10C]]	13
UCUCUUUAUGUAUAUAUGUCUCUU (ssRNA) [Id_ii_S1_P3E.2_K3.1_C3.2_[C-2T]_[T-1A]_H3.1_A3.1_F3.1_T3.2_[A10G]]	9.53
UCUCUUUAUGUAUAUAUCUCUCUU (ssRNA) [Id_ii_S1_P3E.2_K3.1_C3.2_[C-2T]_[T-1A]_H3.1_A3.1_F3.1_T3.2_[A10C]]	9.65
UCUCUUUAUGUAUAUAUUUCUCUU (ssRNA) [Id_ii_S1_P3E.2_K3.1_C3.2_[C-2T]_[T-1A]_H3.1_A3.1_F3.1_T3.2_[A10T]]	9.19
UCUCUUUUUGUAUAUAGGUCUCUU (ssRNA) [Id_ii_S1_P3E.2_K3.1_C3.2_[C-2T]_H3.1_A3.1_F3.1_T3.2_[T9G]_[A10G]]	10.7
UCUCUUUUUGUAUAUAGCUCUCUU (ssRNA) [Id_ii_S1_P3E.2_K3.1_C3.2_[C-2T]_H3.1_A3.1_F3.1_T3.2_[T9G]_[A10C]]	5.32
UCUCUUUUUGUAUAUAGUUCUCUU (ssRNA) [Id_ii_S1_P3E.2_K3.1_C3.2_[C-2T]_H3.1_A3.1_F3.1_T3.2_[T9G]_[A10T]]	4.16
UCUCUUUUUGUAUAUACCUCUCUU (ssRNA) [Id_ii_S1_P3E.2_K3.1_C3.2_[C-2T]_H3.1_A3.1_F3.1_T3.2_[T9C]_[A10C]]	12.1
UCUCUUUUUGUAUAUACUUCUCUU (ssRNA) [Id_ii_S1_P3E.2_K3.1_C3.2_[C-2T]_H3.1_A3.1_F3.1_T3.2_[T9C]_[A10T]]	10.2
UCUCUUUCUGUAUUAUCUCUU (ssRNA) [Ib_S1_P4E.1_K4.1_C4.1_H4.1_[G2C]_[A4G]_A4.1_F4.1_T4.1]	25.1
UCUCUUUUUGUAUAUAAGUCUCUU (ssRNA) [Id_ii_S1_P3E.2_K3.1_C3.2_[C-2T]_H3.1_A3.1_F3.1_T3.2_[T9A]_[A10G]]	11.6
UCUCUUUUUGUAUAUAACUCUCUU (ssRNA) [Id_ii_S1_P3E.2_K3.1_C3.2_[C-2T]_H3.1_A3.1_F3.1_T3.2_[T9A]_[A10C]]	9.6
UCUCUUUUUGUAUAUAAUUCUCUU (ssRNA) [Id_ii_S1_P3E.2_K3.1_C3.2_[C-2T]_H3.1_A3.1_F3.1_T3.2_[T9A]_[A10T]]	8.27
UCUCUUUUUGUAUAUAAAUCUCUU (ssRNA) [Id_ii_S1_P3E.2_K3.1_C3.2_[C-2T]_H3.1_A3.1_F3.1_T3.2_[T9A]]	10.5
UCUCUUUUUGUAUAUAUCUCUCUU (ssRNA) [Id_ii_S1_P3E.2_K3.1_C3.2_[C-2T]_H3.1_A3.1_F3.1_T3.2_[A10C]]	7.26
UCUCUUUUUGUAUAUAUUUCUCUU (ssRNA) [Id_ii_S1_P3E.2_K3.1_C3.2_[C-2T]_H3.1_A3.1_F3.1_T3.2_[A10T]]	6.67
UCUCUUUUUGUAUAUAUAUCUCUU (ssRNA) [Id_ii_S1_P3E.2_K3.1_C3.2_[C-2T]_H3.1_A3.1_F3.1_T3.2]	4.57
UCUCUUAGUGUAUAUAGUUCUCUU (ssRNA) [Id_ii_S1_P3E.2_K3.1_C3.2_[C-2A]_[T-1G]_H3.1_A3.1_F3.1_T3.2_[T9G]_[A10T]]	6.52
UCUCUUAGUGUAUAUAAUUCUCUU (ssRNA) [Id_ii_S1_P3E.2_K3.1_C3.2_[C-2A]_[T-1G]_H3.1_A3.1_F3.1_T3.2_[T9A]_[A10T]]	10.1
UCUCUUAGUGUAUAUAAAUCUCUU (ssRNA) [Id_ii_S1_P3E.2_K3.1_C3.2_[C-2A]_[T-1G]_H3.1_A3.1_F3.1_T3.2_[T9A]]	14.1
UCUCUUUCUCUAUUAUCUCUU (ssRNA) [Ib_S1_P4E.1_K4.1_C4.1_H4.1_[G2C]_[A4C]_A4.1_F4.1_T4.1]	> 2300
UCUCUUAGUGUAUAUAUGUCUCUU (ssRNA) [Id_ii_S1_P3E.2_K3.1_C3.2_[C-2A]_[T-1G]_H3.1_A3.1_F3.1_T3.2_[A10G]]	11
UCUCUUAGUGUAUAUAUCUCUCUU (ssRNA) [Id_ii_S1_P3E.2_K3.1_C3.2_[C-2A]_[T-1G]_H3.1_A3.1_F3.1_T3.2_[A10C]]	13.4
UCUCUUAGUGUAUAUAUUUCUCUU (ssRNA) [Id_ii_S1_P3E.2_K3.1_C3.2_[C-2A]_[T-1G]_H3.1_A3.1_F3.1_T3.2_[A10T]]	10
UCUCUUACUGUAUAUAGCUCUCUU (ssRNA) [Id_ii_S1_P3E.2_K3.1_C3.2_[C-2A]_[T-1C]_H3.1_A3.1_F3.1_T3.2_[T9G]_[A10C]]	9.36

Binder	Kd [nM]
UCUCUUACUGUAUAUACGUCUCUU (ssRNA) [Id_ii_S1_P3E.2_K3.1_C3.2_[C-2A]_[T-1C]_H3.1_A3.1_F3.1_T3.2_[T9C]_[A10G]]	45.4
UCUCUUACUGUAUAUACCUCUCUU (ssRNA) [Id_ii_S1_P3E.2_K3.1_C3.2_[C-2A]_[T-1C]_H3.1_A3.1_F3.1_T3.2_[T9C]_[A10C]]	11.9
UCUCUUACUGUAUAUACUUCUCUU (ssRNA) [Id_ii_S1_P3E.2_K3.1_C3.2_[C-2A]_[T-1C]_H3.1_A3.1_F3.1_T3.2_[T9C]_[A10T]]	15
UCUCUUACUGUAUAUACAUCUCUU (ssRNA) [Id_ii_S1_P3E.2_K3.1_C3.2_[C-2A]_[T-1C]_H3.1_A3.1_F3.1_T3.2_[T9C]]	22.8
UCUCUUACUGUAUAUAACUCUCUU (ssRNA) [Id_ii_S1_P3E.2_K3.1_C3.2_[C-2A]_[T-1C]_H3.1_A3.1_F3.1_T3.2_[T9A]_[A10C]]	26.7
UCUCUUACUGUAUAUAAAUCUCUU (ssRNA) [Id_ii_S1_P3E.2_K3.1_C3.2_[C-2A]_[T-1C]_H3.1_A3.1_F3.1_T3.2_[T9A]]	16.3
UCUCUUUUUGUAUUAUCUCUU (ssRNA) [Ib_S1_P4E.1_K4.1_C4.1_H4.1_[G2T]_[A4G]_A4.1_F4.1_T4.1]	25.7
UCUCUUACUGUAUAUAUGUCUCUU (ssRNA) [Id_ii_S1_P3E.2_K3.1_C3.2_[C-2A]_[T-1C]_H3.1_A3.1_F3.1_T3.2_[A10G]]	17.2
UCUCUUACUGUAUAUAUCUCUCUU (ssRNA) [Id_ii_S1_P3E.2_K3.1_C3.2_[C-2A]_[T-1C]_H3.1_A3.1_F3.1_T3.2_[A10C]]	9.47
UCUCUUACUGUAUAUAUUUCUCUU (ssRNA) [Id_ii_S1_P3E.2_K3.1_C3.2_[C-2A]_[T-1C]_H3.1_A3.1_F3.1_T3.2_[A10T]]	10.8
UCUCUUAAUGUAUAUACCUCUCUU (ssRNA) [Id_ii_S1_P3E.2_K3.1_C3.2_[C-2A]_[T-1A]_H3.1_A3.1_F3.1_T3.2_[T9C]_[A10C]]	16.5
UCUCUUAAUGUAUAUAAUUCUCUU (ssRNA) [Id_ii_S1_P3E.2_K3.1_C3.2_[C-2A]_[T-1A]_H3.1_A3.1_F3.1_T3.2_[T9A]_[A10T]]	8.64
UCUCUUAAUGUAUAUAAAUCUCUU (ssRNA) [Id_ii_S1_P3E.2_K3.1_C3.2_[C-2A]_[T-1A]_H3.1_A3.1_F3.1_T3.2_[T9A]]	20.8
UCUCUUAAUGUAUAUAUGUCUCUU (ssRNA) [Id_ii_S1_P3E.2_K3.1_C3.2_[C-2A]_[T-1A]_H3.1_A3.1_F3.1_T3.2_[A10G]]	12.7
UCUCUUAAUGUAUAUAUCUCUCUU (ssRNA) [Id_ii_S1_P3E.2_K3.1_C3.2_[C-2A]_[T-1A]_H3.1_A3.1_F3.1_T3.2_[A10C]]	10.4
UCUCUUAAUGUAUAUAUUUCUCUU (ssRNA) [Id_ii_S1_P3E.2_K3.1_C3.2_[C-2A]_[T-1A]_H3.1_A3.1_F3.1_T3.2_[A10T]]	13.4
UCUCUUAUUGUAUAUAGCUCUCUU (ssRNA) [Id_ii_S1_P3E.2_K3.1_C3.2_[C-2A]_H3.1_A3.1_F3.1_T3.2_[T9G]_[A10C]]	12.1
UCUCUUUGUAUCUUAUCUCUU (ssRNA) [Ic_S1_P4E.1_K4.1_C4.1_H4.1_A4.1_[A6C]_F4.1_T4.1]	4.1
UCUCUUUUUUUAUUAUCUCUU (ssRNA) [Ib_S1_P4E.1_K4.1_C4.1_H4.1_[G2T]_[A4T]_A4.1_F4.1_T4.1]	> 2300
UCUCUUAUUGUAUAUAGUUCUCUU (ssRNA) [Id_ii_S1_P3E.2_K3.1_C3.2_[C-2A]_H3.1_A3.1_F3.1_T3.2_[T9G]_[A10T]]	6.25
UCUCUUAUUGUAUAUACGUCUCUU (ssRNA) [Id_ii_S1_P3E.2_K3.1_C3.2_[C-2A]_H3.1_A3.1_F3.1_T3.2_[T9C]_[A10G]]	26.9
UCUCUUAUUGUAUAUACCUCUCUU (ssRNA) [Id_ii_S1_P3E.2_K3.1_C3.2_[C-2A]_H3.1_A3.1_F3.1_T3.2_[T9C]_[A10C]]	17.6
UCUCUUAUUGUAUAUACUUCUCUU (ssRNA) [Id_ii_S1_P3E.2_K3.1_C3.2_[C-2A]_H3.1_A3.1_F3.1_T3.2_[T9C]_[A10T]]	10.3
UCUCUUAUUGUAUAUAACUCUCUU (ssRNA) [Id_ii_S1_P3E.2_K3.1_C3.2_[C-2A]_H3.1_A3.1_F3.1_T3.2_[T9A]_[A10C]]	12.9
